Measured values taken from patent US5130298A, “Stabilized compositions containing epidermal growth factor” (Ethicon, Inc., priority 1989, dated 1992).

Assays:
[1] = Stability of precipitated EGF at pH 4.6, 7 days at 46° C., with or without zinc ion, reverse phase HPLC; type: physicochemical; settings: pH 4.6, precipitated, sodium acetate buffer
Experimental: (§1) The zinc-EGF complex must be dissociated before HPLC analysis because the complex cannot be run on the HPLC column as is. Therefore, prior to HPLC, the pH of the samples to be analyzed was adjusted to 3.0. Alternatively, EDTA (a chelating agent) may be used to reverse crystallization. Reverse phase HPLC was conducted using a Vydac C-4 column (4.6 mm×25 cm, 5μm). The flow rate was 0.8 ml/min at 26° C. using a linear gradient of 26% to 32% acetonitrile (0.1% TFA) over 26 minutes.
This experiment was designed to answer the stability of the zinc-EGF complex results from the exclusion of water by the large and insoluble complex or alternatively from the direct interaction of zinc ion with specific amino acids in the protein. A zinc-EGF solution and control were prepared as in Example 1 and the samples were adjusted to a PH of 4.6. At this pH EGF naturally precipitates out of solution since it is at its isoelectric point. Two sets of the precipitated EGF at pH 4.6 in sodium acetate buffer were incubated for 7 days at 46° C.

[2] = EGF stability with zinc ion at pH 5.5 to 6.5, aged 28 days at 46° C., reverse phase HPLC of Peaks C, D, X, Y; type: physicochemical
Experimental: Recombinantly produced human EGF (Chiron Corporation, Emeryville, Calif.) was used in the following experiments. EGF stability with zinc ion was tested at pH 5.5 to 6.5. Lyophilized EGF was reconstituted in 50 mM sodium acetate at PH 5.5. A solution of zinc chloride was then added to this EGF solution. Alternatively, a solution of zinc acetate or crystals of a zinc salt could have been added.
The samples were permitted to age over a 28 day period and then HPLC analysis was used to study the structural changes involving the formation of new species (e.g., Peaks C, X and Y) of EGF under various storage conditions and in the presence of new formulations. Reverse phase HPLC can be used for quantitative and qualitative analysis of EGF.
as §1

| Substance | % Peak C [1] [%] | % Peak X [1] [%] | % Peak Y [1] [%] | % Peak C ([2]; pH 5.5, 28 days at 46° C.) [%] | % Peak D (native EGF) ([2]; pH 5.5, 28 days at 46° C.) [%] | % Peak X ([2]; pH 5.5, 28 days at 46° C.) [%] | % Peak C ([2]; pH 6.0, 28 days at 46° C.) [%] | % Peak D (native EGF) ([2]; pH 6.0, 28 days at 46° C.) [%] | % Peak X ([2]; pH 6.0, 28 days at 46° C.) [%] | % Peak C ([2]; pH 6.5, 28 days at 46° C.) [%] | % Peak X ([2]; pH 6.5, 28 days at 46° C.) [%] | % Peak D (native EGF) [1] [%] | % Peak Y ([2]; pH 5.5, 28 days at 46° C.) [%] | % Peak Y ([2]; pH 6.0, 28 days at 46° C.) [%] | % Peak D (native EGF) ([2]; pH 6.5, 28 days at 46° C.) [%] | % Peak Y ([2]; pH 6.5, 28 days at 46° C.) [%] |
| --- | --- | --- | --- | --- | --- | --- | --- | --- | --- | --- | --- | --- | --- | --- | --- | --- |
| With Zn++: complex ion wherein zinc is coordinately bound to recombinant human EGF; precipitates at pH 4.0-7.0 | 2 | 7 | 0 | 3 | 82 | 0 | 3 | 75 | 4 | 1 | 0 |  |  |  |  |  |
| Without Zn++: Recombinantly produced human epidermal growth factor (Chiron Corporation), 53 amino acid polypeptide, without zinc; control | 0 | 26 | 27 | 3 | 30 |  | 6 | 51 |  | 6 |  | 47 | 25 | 21 | 52 | 21 |
